These results are taken from publication PMC11828871, “Structural basis of anticancer drug recognition and amino acid transport by LAT1” (Nature Communications, 2025).

The target of assay [1] is T1, LAT1–CD98hc heterodimeric complex (human, UniProt Q01650;P08195).
T1 construct: LAT1 (SLC7A5), human; as the chain of m1; CD98hc (4F2hc; SLC3A2), human; as the chain of m2
As to the kind of experiment: cryo-EM structure; LAT1–CD98hc in lipid nanodiscs (POPC:POPG:cholesterol 2:2:1, MSP2N2) complexed with Fab170, gel filtration; SEC buffer 20 mM Tris-HCl pH 9.0, 150 mM NaCl; with JPH203, L-Phe, melphalan, BCH, T3 or no ligand. As to conditions: both partners purified. (SEC sorts molecules by how far they enter the pores of the column.)

Assay [2] deals with T2, CD98hc (4F2hc; SLC3A2) (human, UniProt P08195).
T2 construct: CD98hc (4F2hc; SLC3A2), human, single membrane-spanning protein; The complex was purified by GFP-nanotrap and a FLAG-tag purification step was skipped; The TMD-only models hold only TM1' of CD98hc
T2 sequence (P08195 102-630): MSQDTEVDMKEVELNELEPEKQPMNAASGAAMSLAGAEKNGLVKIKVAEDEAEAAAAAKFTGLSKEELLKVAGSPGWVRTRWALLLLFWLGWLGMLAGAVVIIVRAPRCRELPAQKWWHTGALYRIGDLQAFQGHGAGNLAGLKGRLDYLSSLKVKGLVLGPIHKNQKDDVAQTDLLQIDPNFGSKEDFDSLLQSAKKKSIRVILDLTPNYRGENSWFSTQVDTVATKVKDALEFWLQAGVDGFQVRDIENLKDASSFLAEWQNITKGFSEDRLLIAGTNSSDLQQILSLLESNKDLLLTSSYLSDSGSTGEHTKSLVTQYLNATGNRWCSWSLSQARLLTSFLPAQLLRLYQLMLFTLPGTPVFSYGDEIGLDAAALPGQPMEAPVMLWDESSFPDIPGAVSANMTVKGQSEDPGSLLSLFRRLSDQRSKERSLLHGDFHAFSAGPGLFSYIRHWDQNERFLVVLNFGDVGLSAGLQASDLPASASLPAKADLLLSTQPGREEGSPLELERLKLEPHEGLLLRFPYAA
The description is as above. As to conditions: both partners purified.

T1 sequence (Q01650 whole entry, chain 1 of 2): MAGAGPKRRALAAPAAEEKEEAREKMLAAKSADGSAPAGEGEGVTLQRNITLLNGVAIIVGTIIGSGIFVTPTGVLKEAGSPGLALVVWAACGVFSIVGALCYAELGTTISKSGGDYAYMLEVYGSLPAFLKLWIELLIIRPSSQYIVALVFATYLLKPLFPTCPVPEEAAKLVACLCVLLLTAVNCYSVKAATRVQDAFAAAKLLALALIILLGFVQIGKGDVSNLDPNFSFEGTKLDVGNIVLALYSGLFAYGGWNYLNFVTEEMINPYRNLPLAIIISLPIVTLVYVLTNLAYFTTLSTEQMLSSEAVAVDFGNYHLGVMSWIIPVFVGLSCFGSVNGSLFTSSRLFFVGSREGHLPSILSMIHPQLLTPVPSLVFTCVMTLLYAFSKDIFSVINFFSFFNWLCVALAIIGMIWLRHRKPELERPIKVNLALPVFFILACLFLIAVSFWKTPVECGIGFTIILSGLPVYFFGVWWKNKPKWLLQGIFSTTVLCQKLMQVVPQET
T1 sequence (P08195 102-630, chain 2 of 2): as the sequence (P08195 102-630) above

B1: Fab fragment from clone 170 (Fab170) (Fab, V domains shown)
VH: EVQLQQSGAELVKPGASVNLSCKASGYTFTNYWMHWVRLRPGQGLEWIGEIDPSDSYSYYSQNFKGKATLTVDQSSNTAYLQLTSLTSEDSAVYYCARGRQTYYPWFPYWGQGTLVTVSA
VL: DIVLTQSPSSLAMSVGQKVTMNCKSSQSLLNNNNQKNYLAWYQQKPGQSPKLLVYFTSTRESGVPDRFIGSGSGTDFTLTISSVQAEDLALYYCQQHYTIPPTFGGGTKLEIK
notes: Mouse monoclonal antibody raised against liposomes with purified LAT1–CD98hc; source: mouse hybridoma culture supernatant; IgG purified by Protein G column, digested by papain, Fab further purified on Protein A column
B1: the binding result in assay [1] and in assay [2] was “binds” in each case.
